# In PMC9900698, “Phosphorylation Regulation of a Histone-like HU Protein from Deinococcus radiodurans”:
# T1: DrHU WT (Deinococcus radiodurans R1 (ATCC13939), UniProt Q9RZ89 1-122)
# T1 sequence: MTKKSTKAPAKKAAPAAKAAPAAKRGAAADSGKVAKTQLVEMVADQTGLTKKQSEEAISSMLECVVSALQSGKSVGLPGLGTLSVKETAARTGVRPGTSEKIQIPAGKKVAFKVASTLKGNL
# Biological target: T1, DrHU WT
# Experiment: EMSA; 10 mM Mg2+; EMSA: 50 mM NaCl, 20 mM Tris-HCl pH 8.0, 0.1 mg/ml BSA, 3 mM DTT, 0.1 mM EDTA, 10% glycerol, 10 mM MgCl2, 50 nM DNA, 0-3200 nM DrHU, room temperature 20 min; 22% native PAGE in 1x TB
# Details: protein: recombinant; tags: N-terminal His-MBP (pET28a-HMT), removed by TEV; chain copies: 2; label: 5'-FAM; blunt
row,Binder,Kd [µM]
1,Duplex DNA (24bp) (dsDNA) DNA 1: TCAATTATGTCAATGACATAAAAG DNA 2: CTTTTATGTCATTGACATAATTGA,1.48 ± 0.0418
2,Duplex DNA (36bp) (dsDNA) DNA 1: GCAGAGTCAATTATGTCAATGACATAAAAGGCTCAG DNA 2: CTGAGCCTTTTATGTCATTGACATAATTGACTCTGC,1.35 ± 0.201
3,Duplex DNA (48bp) (dsDNA) DNA 1: TAACAAGCAGAGTCAATTATGTCAATGACATAAAAGGCTCAGGCCTTC DNA 2: GAAGGCCTGAGCCTTTTATGTCATTGACATAATTGACTCTGCTTGTTA,0.449 ± 0.0296
